From the supplement of paper PMC9112550, “Optimization of the antimicrobial peptide Bac7 by deep mutational scanning” (BMC Biology, 2022) come the findings set out here.

The data set relates to Escherichia coli TOP10. Briefly: shrunken log2 fold change of peptide-encoding DNA abundance (4.5 h post-induction vs induction); higher = less antimicrobial activity (less host growth inhibition). Conditions: time post-induction: 4.5 h; library: site-saturation at positions 5, 18, 19, 20.
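Note: peptides expressed intracellularly from a pBAD plasmid library in pooled LB shake-flask culture, induced with 0.3% L-arabinose, DNA abundance read by NGS, three biological replicates, DESeq2 with apeglm shrinkage.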

As for RRIRMRPPRLPRPRPRPDCRPRP, the “shrunken log2 fold change” value stood at 0.134.

As for RRIRNRPPRLPRPRPRPIVFPRP, the “shrunken log2 fold change” value is -0.207.

For RRIRTRPPRLPRPRPRPLKEPRP, the “shrunken log2 fold change” value was found to be 0.825.

With RRIRYRPPRLPRPRPRPTVMPRP, the “shrunken log2 fold change” value was -0.176.

Turning to RRIRWRPPRLPRPRPRPQNVPRP, the “shrunken log2 fold change” value is -0.0645.

For RRIRPRPPRLPRPRPRPLQKPRP, the “shrunken log2 fold change” value is -0.0453.

Turning to RRIRHRPPRLPRPRPRPGVSPRP, the “shrunken log2 fold change” value came to 0.0185.

Consider RRIRCRPPRLPRPRPRPKVPPRP, for which the “shrunken log2 fold change” value is -0.0562.

With RRIRDRPPRLPRPRPRPFVSPRP, the “shrunken log2 fold change” value is 0.00609.

On to RRIRHRPPRLPRPRPRPGVMPRP, for which the “shrunken log2 fold change” value is -0.0309.

Turning to RRIRPRPPRLPRPRPRPPTFPRP, the “shrunken log2 fold change” value was -0.142.

RRIRERPPRLPRPRPRPNGTPRP: the “shrunken log2 fold change” value is -0.0811.

RRIRCRPPRLPRPRPRPVKEPRP: the “shrunken log2 fold change” value is -0.0734.

For RRIRFRPPRLPRPRPRPESTPRP, the “shrunken log2 fold change” value is -0.00608.

With RRIRVRPPRLPRPRPRPGYIPRP, the “shrunken log2 fold change” value was -0.608.

With RRIRHRPPRLPRPRPRPSNEPRP, the “shrunken log2 fold change” value was -0.271.

Consider RRIRERPPRLPRPRPRPYWNPRP, for which the “shrunken log2 fold change” value is -0.858.

Turning to RRIRERPPRLPRPRPRPDLMPRP, the “shrunken log2 fold change” value was 0.0435.

Take RRIRTRPPRLPRPRPRPSGQPRP: the “shrunken log2 fold change” value turned out to be 0.0245.

Take RRIRARPPRLPRPRPRPMPEPRP: the “shrunken log2 fold change” value worked out at 0.18.

As for RRIRNRPPRLPRPRPRPNKGPRP, the “shrunken log2 fold change” value is -0.134.

As to RRIRVRPPRLPRPRPRPKFYPRP, the “shrunken log2 fold change” value was -0.46.

As for RRIRMRPPRLPRPRPRPEPLPRP, the “shrunken log2 fold change” value came to 0.277.

RRIRNRPPRLPRPRPRPLSPPRP: the “shrunken log2 fold change” value was -0.215.

Take RRIRVRPPRLPRPRPRPWYCPRP: the “shrunken log2 fold change” value is -0.462.

On to RRIRDRPPRLPRPRPRPHATPRP, for which the “shrunken log2 fold change” value is 0.985.

With RRIRRRPPRLPRPRPRPPIYPRP, the “shrunken log2 fold change” value is 0.786.

As for RRIRYRPPRLPRPRPRPDYTPRP, the “shrunken log2 fold change” value is -0.174.

Take RRIRMRPPRLPRPRPRPPLWPRP: the “shrunken log2 fold change” value stood at 1.31.

As to RRIRDRPPRLPRPRPRPMFGPRP, the “shrunken log2 fold change” value is 0.12.

RRIRTRPPRLPRPRPRPYKAPRP: the “shrunken log2 fold change” value was -1.77.

Regarding RRIRRRPPRLPRPRPRPLTGPRP, the “shrunken log2 fold change” value worked out at 0.0456.

For RRIRTRPPRLPRPRPRPRADPRP, the “shrunken log2 fold change” value came to 0.158.

Turning to RRIRPRPPRLPRPRPRPAKWPRP, the “shrunken log2 fold change” value was 0.0878.

Turning to RRIRGRPPRLPRPRPRPLDRPRP, the “shrunken log2 fold change” value stood at 0.732.

As to RRIRQRPPRLPRPRPRPRHAPRP, the “shrunken log2 fold change” value was -0.0685.

RRIRMRPPRLPRPRPRPNTFPRP: the “shrunken log2 fold change” value was found to be 0.105.

Turning to RRIRHRPPRLPRPRPRPWWVPRP, the “shrunken log2 fold change” value was -0.136.

Consider RRIRQRPPRLPRPRPRPMWHPRP, for which the “shrunken log2 fold change” value is -0.18.

Regarding RRIRKRPPRLPRPRPRPWNLPRP, the “shrunken log2 fold change” value is -0.109.

RRIRGRPPRLPRPRPRPSNQPRP: the “shrunken log2 fold change” value turned out to be 0.0776.

For RRIRNRPPRLPRPRPRPKVHPRP, the “shrunken log2 fold change” value came to 0.0346.

Consider RRIRFRPPRLPRPRPRPMRPPRP, for which the “shrunken log2 fold change” value was 0.654.

Turning to RRIRIRPPRLPRPRPRPPPEPRP, the “shrunken log2 fold change” value amounted to 0.32.

Regarding RRIRARPPRLPRPRPRPPREPRP, the “shrunken log2 fold change” value was determined as 1.01.

On to RRIRSRPPRLPRPRPRPQKRPRP, for which the “shrunken log2 fold change” value was -0.343.

With RRIRNRPPRLPRPRPRPWRRPRP, the “shrunken log2 fold change” value was -0.0717.

With RRIRYRPPRLPRPRPRPWLPPRP, the “shrunken log2 fold change” value was 0.1.

On to RRIRRRPPRLPRPRPRPTIYPRP, for which the “shrunken log2 fold change” value was -0.1.

RRIRLRPPRLPRPRPRPCVNPRP: the “shrunken log2 fold change” value was -0.00681.

Regarding RRIRRRPPRLPRPRPRPRLTPRP, the “shrunken log2 fold change” value came to 0.439.

In the case of RRIRIRPPRLPRPRPRPGYRPRP, the “shrunken log2 fold change” value is -0.217.

As to RRIRKRPPRLPRPRPRPGTGPRP, the “shrunken log2 fold change” value was 0.1.

Consider RRIRYRPPRLPRPRPRPTKGPRP, for which the “shrunken log2 fold change” value was -0.136.

In the case of RRIRYRPPRLPRPRPRPCSAPRP, the “shrunken log2 fold change” value is -0.212.

Take RRIRERPPRLPRPRPRPNGPPRP: the “shrunken log2 fold change” value was -0.0578.

Regarding RRIRKRPPRLPRPRPRPAPPPRP, the “shrunken log2 fold change” value came to 1.04.

As for RRIRDRPPRLPRPRPRPRIIPRP, the “shrunken log2 fold change” value is -0.00686.

RRIRKRPPRLPRPRPRPDERPRP: the “shrunken log2 fold change” value is -0.00101.

As to RRIRPRPPRLPRPRPRPWQQPRP, the “shrunken log2 fold change” value was -0.0467.

Regarding RRIRRRPPRLPRPRPRPQEQPRP, the “shrunken log2 fold change” value was -0.0166.

With RRIRPRPPRLPRPRPRPAVCPRP, the “shrunken log2 fold change” value stood at 0.245.

In the case of RRIRGRPPRLPRPRPRPHCSPRP, the “shrunken log2 fold change” value was determined as 0.144.

Turning to RRIRNRPPRLPRPRPRPHGSPRP, the “shrunken log2 fold change” value is -0.00146.

RRIRHRPPRLPRPRPRPFDCPRP: the “shrunken log2 fold change” value is -0.186.

On to RRIRMRPPRLPRPRPRPNDWPRP, for which the “shrunken log2 fold change” value amounted to 0.435.

With RRIRIRPPRLPRPRPRPCMQPRP, the “shrunken log2 fold change” value was -0.0295.

RRIRIRPPRLPRPRPRPLSDPRP: the “shrunken log2 fold change” value worked out at 0.0446.

On to RRIRGRPPRLPRPRPRPIIQPRP, for which the “shrunken log2 fold change” value was determined as 0.203.

For RRIRQRPPRLPRPRPRPPCCPRP, the “shrunken log2 fold change” value was 0.0763.

Consider RRIRQRPPRLPRPRPRPPCHPRP, for which the “shrunken log2 fold change” value was found to be 0.0591.

For the sequence RRIRQRPPRLPRPRPRPQQIPRP, the “shrunken log2 fold change” value was -0.0822.

For the sequence RRIRKRPPRLPRPRPRPANAPRP, the “shrunken log2 fold change” value is 0.426.

For the sequence RRIRLRPPRLPRPRPRPHDMPRP, the “shrunken log2 fold change” value is -0.117.

Regarding RRIRSRPPRLPRPRPRPPSGPRP, the “shrunken log2 fold change” value stood at 0.489.

For RRIRFRPPRLPRPRPRPNNTPRP, the “shrunken log2 fold change” value is -0.999.

On to RRIRKRPPRLPRPRPRPQKGPRP, for which the “shrunken log2 fold change” value is -0.0581.

For the sequence RRIRWRPPRLPRPRPRPVRCPRP, the “shrunken log2 fold change” value worked out at 0.418.

As to RRIRLRPPRLPRPRPRPTRLPRP, the “shrunken log2 fold change” value is 0.432.

Turning to RRIRVRPPRLPRPRPRPSDFPRP, the “shrunken log2 fold change” value is -0.394.

For RRIRFRPPRLPRPRPRPEHDPRP, the “shrunken log2 fold change” value was -0.446.

As to RRIRDRPPRLPRPRPRPYNKPRP, the “shrunken log2 fold change” value was -0.398.

In the case of RRIRKRPPRLPRPRPRPGLVPRP, the “shrunken log2 fold change” value was found to be 0.783.

For the sequence RRIRIRPPRLPRPRPRPWIQPRP, the “shrunken log2 fold change” value was -0.318.

For the sequence RRIRLRPPRLPRPRPRPCEEPRP, the “shrunken log2 fold change” value was -0.0266.

Take RRIRWRPPRLPRPRPRPYNFPRP: the “shrunken log2 fold change” value is -0.58.

For RRIRWRPPRLPRPRPRPMKVPRP, the “shrunken log2 fold change” value came to 0.138.

As for RRIRRRPPRLPRPRPRPISQPRP, the “shrunken log2 fold change” value was -0.395.

As to RRIRTRPPRLPRPRPRPGGMPRP, the “shrunken log2 fold change” value is -0.117.

RRIRIRPPRLPRPRPRPTLNPRP: the “shrunken log2 fold change” value is -0.181.

RRIRKRPPRLPRPRPRPDLMPRP: the “shrunken log2 fold change” value worked out at 0.0729.

In the case of RRIRWRPPRLPRPRPRPWMHPRP, the “shrunken log2 fold change” value was -0.0548.

As for RRIRWRPPRLPRPRPRPHCFPRP, the “shrunken log2 fold change” value is -0.0202.

Turning to RRIRFRPPRLPRPRPRPGVNPRP, the “shrunken log2 fold change” value turned out to be 0.0431.

RRIRHRPPRLPRPRPRPYEEPRP: the “shrunken log2 fold change” value was -0.431.

For the sequence RRIRHRPPRLPRPRPRPDMEPRP, the “shrunken log2 fold change” value is -0.336.

RRIRARPPRLPRPRPRPFTTPRP: the “shrunken log2 fold change” value was -0.0831.

On to RRIRRRPPRLPRPRPRPMELPRP, for which the “shrunken log2 fold change” value was found to be 0.212.

As for RRIRQRPPRLPRPRPRPQTKPRP, the “shrunken log2 fold change” value is -0.133.

As for RRIRRRPPRLPRPRPRPTFPPRP, the “shrunken log2 fold change” value is 0.444.

In the case of RRIRDRPPRLPRPRPRPMGPPRP, the “shrunken log2 fold change” value is -0.00107.

With RRIRTRPPRLPRPRPRPNYEPRP, the “shrunken log2 fold change” value was -0.682.

For RRIRLRPPRLPRPRPRPWNDPRP, the “shrunken log2 fold change” value came to 0.041.

Regarding RRIRLRPPRLPRPRPRPMLYPRP, the “shrunken log2 fold change” value is -0.232.

For the sequence RRIRMRPPRLPRPRPRPHEAPRP, the “shrunken log2 fold change” value turned out to be 0.0628.

RRIRHRPPRLPRPRPRPQHGPRP: the “shrunken log2 fold change” value came to 0.00949.

Take RRIRYRPPRLPRPRPRPERHPRP: the “shrunken log2 fold change” value was -0.0384.

Regarding RRIRVRPPRLPRPRPRPVPKPRP, the “shrunken log2 fold change” value worked out at 0.128.

Take RRIRLRPPRLPRPRPRPRYCPRP: the “shrunken log2 fold change” value was -0.357.

On to RRIRFRPPRLPRPRPRPNWSPRP, for which the “shrunken log2 fold change” value is -0.0531.

Regarding RRIRIRPPRLPRPRPRPRCEPRP, the “shrunken log2 fold change” value was -0.0571.

For RRIRRRPPRLPRPRPRPPCCPRP, the “shrunken log2 fold change” value was determined as 0.623.

In the case of RRIRHRPPRLPRPRPRPSEQPRP, the “shrunken log2 fold change” value was -0.178.

As to RRIRSRPPRLPRPRPRPAYEPRP, the “shrunken log2 fold change” value stood at 0.00308.

With RRIRMRPPRLPRPRPRPNGPPRP, the “shrunken log2 fold change” value was 0.114.

With RRIRYRPPRLPRPRPRPLYFPRP, the “shrunken log2 fold change” value is -1.15.

As to RRIRFRPPRLPRPRPRPHVHPRP, the “shrunken log2 fold change” value was -0.0448.

For RRIRPRPPRLPRPRPRPFCKPRP, the “shrunken log2 fold change” value is -0.511.

RRIRERPPRLPRPRPRPKCKPRP: the “shrunken log2 fold change” value is -0.173.

RRIRTRPPRLPRPRPRPMMAPRP: the “shrunken log2 fold change” value is 0.0689.

In the case of RRIRNRPPRLPRPRPRPQCYPRP, the “shrunken log2 fold change” value was -0.136.

Turning to RRIRWRPPRLPRPRPRPSAPPRP, the “shrunken log2 fold change” value came out at 0.499.

As to RRIRNRPPRLPRPRPRPATPPRP, the “shrunken log2 fold change” value stood at 0.537.

As for RRIRYRPPRLPRPRPRPSLKPRP, the “shrunken log2 fold change” value is -0.316.

On to RRIRIRPPRLPRPRPRPYCQPRP, for which the “shrunken log2 fold change” value is -1.1.
